PMC5410337, “Anti-cancer effect of novel PAK1 inhibitor via induction of PUMA-mediated cell death and p21-mediated cell cycle arrest” (Oncotarget, 2017)

Biological target: T1, recombinant full-length human PUMA (residue 1-193) (human, UniProt Q9BXH1 1-193)
T1 construct: Expressed as a GST fusion from pGEX-TEV (TEV site present); also called PUMA protein
T1 sequence (looked up): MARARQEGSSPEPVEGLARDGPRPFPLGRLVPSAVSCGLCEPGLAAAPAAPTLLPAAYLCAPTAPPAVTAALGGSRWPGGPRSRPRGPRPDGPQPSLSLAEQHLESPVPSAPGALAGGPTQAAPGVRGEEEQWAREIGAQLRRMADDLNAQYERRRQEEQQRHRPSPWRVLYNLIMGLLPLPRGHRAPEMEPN
Experiment: ELISA; PAK1 recombinant protein immobilised on a 96-well plate with 0.5% paraformaldehyde; chemicals (25 or 50 uM) added, then PUMA protein, 2 hr; detected with anti-PUMA antibody and anti-rabbit IgG-HRP, absorbance at 450 nm
Settings: both partners purified

binding result: binds
B1: GST-PAK1 N-terminal domain (residues 70-149) (domain or fragment, human, UniProt Q13153 70-149, looked up)
chain: KERPEISLPSDFEHTIHVGFDAVTGEFTGMPEQWARLLQTSNITKSEQKKNPQAVLDVLEFYNSKKTSNSQKYMSFTDKS
notes: Cloned in pGEX-TEV (pGEX-4T1 with a TEV site); pGEX vectors put GST at the N-terminus (surmised); GST is kept on agarose beads in the pull-downs; the discussion says the N-terminal region of PAK1 was used for the screening; also called PAK1 recombinant protein; N-terminal region of PAK1
